Laboratory results published in publication PMC9405023, “NRF2 Regulates Cystathionine Gamma-Lyase Expression and Activity in Primary Airway Epithelial Cells Infected with Respiratory Syncytial Virus”.

Target: T1, recombinant NRF2 (rNRF2) (UniProt Q16236 1-605)
T1 sequence: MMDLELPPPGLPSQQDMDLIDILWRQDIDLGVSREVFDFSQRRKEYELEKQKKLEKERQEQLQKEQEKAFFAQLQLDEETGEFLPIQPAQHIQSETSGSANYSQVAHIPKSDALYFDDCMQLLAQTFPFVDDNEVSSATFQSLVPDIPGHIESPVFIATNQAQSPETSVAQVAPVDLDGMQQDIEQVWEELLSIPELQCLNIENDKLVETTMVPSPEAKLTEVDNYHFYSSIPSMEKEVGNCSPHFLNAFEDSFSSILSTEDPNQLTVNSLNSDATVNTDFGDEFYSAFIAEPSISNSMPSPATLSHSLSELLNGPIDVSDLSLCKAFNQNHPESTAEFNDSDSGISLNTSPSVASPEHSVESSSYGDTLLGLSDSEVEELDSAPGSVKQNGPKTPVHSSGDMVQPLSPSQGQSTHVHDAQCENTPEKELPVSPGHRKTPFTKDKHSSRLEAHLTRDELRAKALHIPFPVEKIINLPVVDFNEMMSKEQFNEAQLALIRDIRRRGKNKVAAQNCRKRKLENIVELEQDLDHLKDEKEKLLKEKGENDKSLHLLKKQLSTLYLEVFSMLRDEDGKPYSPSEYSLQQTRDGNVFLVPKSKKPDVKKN
Experiment: EMSA; C1 and C2 complexes; 10 mM Tris-HCl pH 8.0, 50 mM KCl, 50 mM NaCl, 1 mM MgCl2, 1 mM EDTA, 5 mM DTT, 2.5% glycerol, 0.3 ug poly dI-dC, 15 fmol probe, 6-8 ug nuclear extract, 10 uL, 15 min, room temperature
Conditions: protein: recombinant; label: 32P (probe); blunt

B1: -156/-120 CSE wild type (WT) (dsDNA)
DNA 1: CGGTCGCGGTGACGTTTCAGGCAACGCCTCTGCTGT
DNA 2: ACAGCAGAGGCGTTGCCTGAAACGTCACCGCGACCG
Does B1 bind?
Result: binds
